The subject of this series is Escherichia coli TOP10. Briefly: shrunken log2 fold change of peptide-encoding DNA abundance (4.5 h post-induction vs induction); higher = less antimicrobial activity (less host growth inhibition). As to conditions: time post-induction: 4.5 h; library: site-saturation at positions 5, 18, 19, 20.
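Note: peptides expressed intracellularly from a pBAD plasmid library in pooled LB shake-flask culture, induced with 0.3% L-arabinose, DNA abundance read by NGS, three biological replicates, DESeq2 with apeglm shrinkage.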

Consider RRIRIRPPRLPRPRPRPITLPRP, for which the “shrunken log2 fold change” value is -0.237.
Regarding RRIRARPPRLPRPRPRPQTDPRP, the “shrunken log2 fold change” value was found to be 0.275.
To RRIRTRPPRLPRPRPRPKQTPRP belongs 0.204.
As to RRIRCRPPRLPRPRPRPNHYPRP, the “shrunken log2 fold change” value was -0.825.
Take RRIRIRPPRLPRPRPRPWIKPRP: the “shrunken log2 fold change” value was -0.0222.
As to RRIRMRPPRLPRPRPRPHDHPRP, the “shrunken log2 fold change” value is -0.0397.
As for RRIRIRPPRLPRPRPRPVNIPRP, the “shrunken log2 fold change” value was -0.17.
Turning to RRIRVRPPRLPRPRPRPTIKPRP, the “shrunken log2 fold change” value was -0.226.
Take RRIRERPPRLPRPRPRPFHRPRP: the “shrunken log2 fold change” value is -0.182.
To RRIRDRPPRLPRPRPRPMLKPRP belongs 0.111.
As to RRIRTRPPRLPRPRPRPSMDPRP, the “shrunken log2 fold change” value is 2.57e-05.
As for RRIRWRPPRLPRPRPRPTYAPRP, the “shrunken log2 fold change” value is -0.0208.
Regarding RRIRFRPPRLPRPRPRPSTYPRP, the “shrunken log2 fold change” value is -0.802.
To RRIRERPPRLPRPRPRPHQAPRP belongs 0.0779.
To RRIRWRPPRLPRPRPRPFVMPRP belongs -1.01; to RRIRARPPRLPRPRPRPMCCPRP, 0.335; to RRIRERPPRLPRPRPRPKMYPRP, -0.898.
Regarding RRIRMRPPRLPRPRPRPDDGPRP, the “shrunken log2 fold change” value was 0.038.
As for RRIRNRPPRLPRPRPRPWPRPRP, the “shrunken log2 fold change” value was -0.0347.
To RRIRLRPPRLPRPRPRPCQGPRP belongs 0.00157; to RRIRARPPRLPRPRPRPPAFPRP, 1.04.
For RRIRERPPRLPRPRPRPPHIPRP, the “shrunken log2 fold change” value is -0.366.
For RRIRWRPPRLPRPRPRPNWTPRP, the “shrunken log2 fold change” value was found to be 0.0351.
Turning to RRIRARPPRLPRPRPRPQQMPRP, the “shrunken log2 fold change” value stood at 0.12.
With RRIRQRPPRLPRPRPRPSRHPRP, the “shrunken log2 fold change” value is -0.0666.
Take RRIRFRPPRLPRPRPRPQEMPRP: the “shrunken log2 fold change” value came to 0.126.
To RRIRTRPPRLPRPRPRPYDFPRP belongs -0.385; to RRIRFRPPRLPRPRPRPGPRPRP, 0.618; to RRIRRRPPRLPRPRPRPPCAPRP, 0.667.
In the case of RRIRMRPPRLPRPRPRPSGCPRP, the “shrunken log2 fold change” value came out at 0.44.
In the case of RRIRRRPPRLPRPRPRPKVWPRP, the “shrunken log2 fold change” value turned out to be 0.382.
For the sequence RRIRNRPPRLPRPRPRPAQGPRP, the “shrunken log2 fold change” value is 0.279.
Regarding RRIRFRPPRLPRPRPRPYPPPRP, the “shrunken log2 fold change” value is -0.665.
Regarding RRIRFRPPRLPRPRPRPFVTPRP, the “shrunken log2 fold change” value is -0.442.
As for RRIRYRPPRLPRPRPRPQIMPRP, the “shrunken log2 fold change” value is -0.705.
On to RRIRGRPPRLPRPRPRPRCWPRP, for which the “shrunken log2 fold change” value was 1.19.
To RRIRWRPPRLPRPRPRPWGYPRP belongs 0.0906; to RRIRKRPPRLPRPRPRPNMFPRP, -0.155.
In the case of RRIRCRPPRLPRPRPRPEHGPRP, the “shrunken log2 fold change” value is 0.11.
For the sequence RRIRRRPPRLPRPRPRPVRDPRP, the “shrunken log2 fold change” value was 0.718.
Regarding RRIRRRPPRLPRPRPRPVDWPRP, the “shrunken log2 fold change” value came to 0.577.
To RRIRKRPPRLPRPRPRPVEPPRP belongs 0.505; to RRIRPRPPRLPRPRPRPWRSPRP, 0.0793; to RRIRKRPPRLPRPRPRPQAFPRP, -0.0237.
Turning to RRIRPRPPRLPRPRPRPQQGPRP, the “shrunken log2 fold change” value was found to be 0.14.
For the sequence RRIRGRPPRLPRPRPRPIGRPRP, the “shrunken log2 fold change” value is 0.551.
On to RRIRSRPPRLPRPRPRPQHVPRP, for which the “shrunken log2 fold change” value was -0.17.
Regarding RRIRYRPPRLPRPRPRPQSRPRP, the “shrunken log2 fold change” value was -0.17.
To RRIRDRPPRLPRPRPRPKLKPRP belongs -0.0223; to RRIRHRPPRLPRPRPRPNSWPRP, 0.254; to RRIRGRPPRLPRPRPRPGELPRP, 0.61.
As for RRIRSRPPRLPRPRPRPIFYPRP, the “shrunken log2 fold change” value was -0.387.
In the case of RRIRERPPRLPRPRPRPHVHPRP, the “shrunken log2 fold change” value was -0.315.
As to RRIRARPPRLPRPRPRPTEMPRP, the “shrunken log2 fold change” value is -0.00782.
In the case of RRIRHRPPRLPRPRPRPQLCPRP, the “shrunken log2 fold change” value was found to be 0.0716.
Take RRIRKRPPRLPRPRPRPCTMPRP: the “shrunken log2 fold change” value was -0.271.
For the sequence RRIRIRPPRLPRPRPRPHMIPRP, the “shrunken log2 fold change” value is -0.602.
Take RRIRERPPRLPRPRPRPWKTPRP: the “shrunken log2 fold change” value was found to be 0.0324.
Take RRIRVRPPRLPRPRPRPWNAPRP: the “shrunken log2 fold change” value is -0.0893.
Take RRIRYRPPRLPRPRPRPVKWPRP: the “shrunken log2 fold change” value came out at 0.0689.
As for RRIRPRPPRLPRPRPRPIYNPRP, the “shrunken log2 fold change” value was -0.837.
With RRIRERPPRLPRPRPRPLQFPRP, the “shrunken log2 fold change” value was -0.468.
For the sequence RRIRPRPPRLPRPRPRPVQKPRP, the “shrunken log2 fold change” value came out at 0.0644.
To RRIRKRPPRLPRPRPRPRFEPRP belongs 0.43; to RRIRSRPPRLPRPRPRPEAPPRP, 0.67; to RRIRGRPPRLPRPRPRPTKDPRP, 0.7.
For RRIRPRPPRLPRPRPRPKDHPRP, the “shrunken log2 fold change” value is 0.0743.
As to RRIRERPPRLPRPRPRPPGYPRP, the “shrunken log2 fold change” value was -0.175.
To RRIRERPPRLPRPRPRPWFNPRP belongs -0.599; to RRIRHRPPRLPRPRPRPGCNPRP, -0.175.
For the sequence RRIRPRPPRLPRPRPRPQVAPRP, the “shrunken log2 fold change” value was -0.0363.
Regarding RRIRHRPPRLPRPRPRPYRIPRP, the “shrunken log2 fold change” value was -0.231.
Consider RRIRARPPRLPRPRPRPMSMPRP, for which the “shrunken log2 fold change” value was found to be 0.0853.
Consider RRIRTRPPRLPRPRPRPECWPRP, for which the “shrunken log2 fold change” value stood at 0.53.
Take RRIRERPPRLPRPRPRPPGQPRP: the “shrunken log2 fold change” value is 0.104.
RRIRNRPPRLPRPRPRPQWLPRP: the “shrunken log2 fold change” value was -0.317.
Take RRIRKRPPRLPRPRPRPMGCPRP: the “shrunken log2 fold change” value worked out at 0.408.
In the case of RRIRLRPPRLPRPRPRPISNPRP, the “shrunken log2 fold change” value was -0.17.
Take RRIRKRPPRLPRPRPRPVVQPRP: the “shrunken log2 fold change” value is 0.242.
For RRIRQRPPRLPRPRPRPPMSPRP, the “shrunken log2 fold change” value was -0.139.
Turning to RRIRNRPPRLPRPRPRPLFTPRP, the “shrunken log2 fold change” value was -0.0916.
To RRIRYRPPRLPRPRPRPSRYPRP belongs -0.122; to RRIRKRPPRLPRPRPRPGTWPRP, 0.315.
To RRIRNRPPRLPRPRPRPSPMPRP belongs -0.0245.
For RRIRCRPPRLPRPRPRPDMMPRP, the “shrunken log2 fold change” value was 0.00614.
To RRIRVRPPRLPRPRPRPSDHPRP belongs -0.0923; to RRIRERPPRLPRPRPRPKFGPRP, 0.37; to RRIRTRPPRLPRPRPRPFLCPRP, -0.978.
Turning to RRIRDRPPRLPRPRPRPQWSPRP, the “shrunken log2 fold change” value was -0.0128.
With RRIRMRPPRLPRPRPRPPLVPRP, the “shrunken log2 fold change” value came out at 0.36.
With RRIRYRPPRLPRPRPRPYDNPRP, the “shrunken log2 fold change” value was -0.0463.

(Values after the supplement of paper PMC9112550, “Optimization of the antimicrobial peptide Bac7 by deep mutational scanning” (BMC Biology, 2022).)
